The IC50 is the midpoint of a concentration-inhibition curve.

The record followed here is patent publication US20080280308A1.

The target of assay [1] is light-activated rhodopsin (bovine) (UniProt P02699). Put plainly: ELISA, MBP fusion on light-activated rhodopsin. A general note: An ELISA detects its analyte on a solid surface through an enzyme-linked reagent.
Assay [2] addresses human thrombin receptor (PAR1) (human) (UniProt P25116). Nature of the assay: ELISA, purified MBP-Gαq on reconstituted PAR1 with thrombin receptor activating peptide.
A further assay addresses β2 adrenergic receptor. Nature of the assay: ELISA of panned Gs library clones on reconstituted receptor.

Sequence of human thrombin receptor (PAR1) (human) (P25116 42-425): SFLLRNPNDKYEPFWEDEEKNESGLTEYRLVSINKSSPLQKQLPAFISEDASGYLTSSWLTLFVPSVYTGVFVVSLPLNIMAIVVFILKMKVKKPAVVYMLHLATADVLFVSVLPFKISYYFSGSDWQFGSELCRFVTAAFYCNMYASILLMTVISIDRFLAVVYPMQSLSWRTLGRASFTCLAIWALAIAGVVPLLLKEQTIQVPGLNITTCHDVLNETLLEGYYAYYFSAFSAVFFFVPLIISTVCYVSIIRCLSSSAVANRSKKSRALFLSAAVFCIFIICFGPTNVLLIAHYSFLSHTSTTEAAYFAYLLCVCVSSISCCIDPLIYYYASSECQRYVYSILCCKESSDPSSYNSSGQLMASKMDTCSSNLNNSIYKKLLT
Sequence of light-activated rhodopsin (bovine) (P02699 whole entry, the tested form may be a part): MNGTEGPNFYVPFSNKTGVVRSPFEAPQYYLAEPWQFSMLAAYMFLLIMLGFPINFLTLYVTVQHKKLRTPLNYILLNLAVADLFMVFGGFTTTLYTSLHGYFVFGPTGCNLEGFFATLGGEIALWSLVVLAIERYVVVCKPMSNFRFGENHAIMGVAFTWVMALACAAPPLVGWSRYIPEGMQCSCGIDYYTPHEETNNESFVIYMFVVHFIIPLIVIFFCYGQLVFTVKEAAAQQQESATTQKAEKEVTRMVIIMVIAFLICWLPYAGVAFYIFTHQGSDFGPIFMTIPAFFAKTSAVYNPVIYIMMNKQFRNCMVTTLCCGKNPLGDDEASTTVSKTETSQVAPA

On to MBP-Gαt340-350K341R, for which the 50% inhibitory concentration (IC50) in assay [1] amounted to 6 µM.
Regarding maltose binding protein-Gαq (MBP-Gαq), the half-maximal inhibitory concentration (IC50) in assay [2] is 0.214 µM.
In the assay with β2 adrenergic receptor, PRPRLLRFKIP [AG19 …] yielded an ELISA of 0.361.
Turning to QGEHLRQLQLQ [AG2 …], the ELISA with β2 adrenergic receptor worked out at 0.33.
As for HRRHIGPFALL [BAR11 …], the ELISA in the assay with β2 adrenergic receptor was found to be 0.048.
Molecule QRIHRRPFKFF [BAR1 …] displayed an ELISA with β2 adrenergic receptor of 0.218.
In the assay with β2 adrenergic receptor, ERLHRRLFQLH [BAR8 …] came in with an ELISA of 0.047.
Turning to QRMPLRLFEFL [AG3 …], the ELISA with β2 adrenergic receptor is 0.217.
On to QRMNLGPCGLL [AG18 …], for which the ELISA in the assay with β2 adrenergic receptor was determined as 0.155.
With QRLHLRGYEFL [AG13 …], the ELISA in the assay with β2 adrenergic receptor is 0.054.
Regarding QWMDLRQHELL [BAR3 …], in the assay with β2 adrenergic receptor, the ELISA worked out at 0.185.
As for QRLRLRKYRLF [BAR31 …], the ELISA with β2 adrenergic receptor is 0.026.
Same read-out and setting: for PCIQLGQYESF [BAR40 …] the value was 0.028; for QRVHLRQDELL [BAR2 …], 0.197; for QGMQLRRFKLR [AG1 …], 0.435.
On to DRMHLWRFGLL [AG11 …], for which the ELISA in the assay with β2 adrenergic receptor turned out to be 0.192.
Turning to RWLHWQYRGRG [AG20 …], the ELISA with β2 adrenergic receptor was 0.431.
Same read-out and setting: for QRMPLRQYELL [AG9 …] the value was 0.19; for NCMKFRSCGLF [BAR20 …], 0.079; for QRLRLGPDELF [AG4 …], 0.291.
